US20090092581A1

Legend:
[1] = molecular target: Cynomolgus IFN-α protein SEQ ID 58, expressed in Vero tissue culture supernatant (Cynomolgus (Macaca fascicularis)); experiment: ELISA kit PBL #41100 (head prints 41110) on Vero supernatant; read against human IFN-α2a standard curve; unit not given
[2] = molecular target: Cynomolgus IFN-α protein SEQ ID 66, expressed in Vero tissue culture supernatant (Cynomolgus (Macaca fascicularis)); experiment: as above
[3] = molecular target: Cynomolgus IFN-α protein SEQ ID 56, expressed in Vero tissue culture supernatant (Cynomolgus (Macaca fascicularis)); experiment: as above
[4] = molecular target: Cynomolgus IFN-α protein SEQ ID 54, expressed in Vero tissue culture supernatant (Cynomolgus (Macaca fascicularis)); experiment: as above
[5] = molecular target: Cynomolgus IFN-α protein SEQ ID 46, expressed in Vero tissue culture supernatant (Cynomolgus (Macaca fascicularis)); experiment: as above
[6] = molecular target: Cynomolgus IFN-α protein SEQ ID 60, expressed in Vero tissue culture supernatant (Cynomolgus (Macaca fascicularis)); experiment: as above
[7] = molecular target: Cynomolgus IFN-α protein SEQ ID 50, expressed in Vero tissue culture supernatant (Cynomolgus (Macaca fascicularis)); experiment: as above
[8] = molecular target: Cynomolgus IFN-α protein SEQ ID 42, expressed in Vero tissue culture supernatant (Cynomolgus (Macaca fascicularis)); experiment: as above
[9] = molecular target: Cynomolgus IFN-α protein SEQ ID 62, expressed in Vero tissue culture supernatant (Cynomolgus (Macaca fascicularis)); experiment: as above
[10] = molecular target: Rhesus interferon alpha 2 (Rhesus) (UniProt B6CK11); experiment: sandwich ELISA kit PBL #41100-1; signal relative to human IFN-α2 (FIG. 3)
[11] = molecular target: Cynomolgus interferon alpha 2 (SEQ ID NO: 66), purified from inclusion bodies after expression in E. coli (Cynomolgus (Macaca fascicularis)); experiment: as above

Sequence of UniProt B6CK11 (B6CK11 entry or part of it): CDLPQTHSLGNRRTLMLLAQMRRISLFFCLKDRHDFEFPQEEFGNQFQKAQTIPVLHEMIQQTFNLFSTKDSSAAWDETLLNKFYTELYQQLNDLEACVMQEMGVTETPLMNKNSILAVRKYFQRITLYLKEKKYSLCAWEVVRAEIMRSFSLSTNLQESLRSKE

- ELISA estimate of IFN-α protein level in tissue culture supernatant [1]: 66
- ELISA estimate of IFN-α protein level in tissue culture supernatant [2]: 184
- ELISA estimate of IFN-α protein level in tissue culture supernatant [3]: 0
- ELISA estimate of IFN-α protein level in tissue culture supernatant [4]: 11
- ELISA estimate of IFN-α protein level in tissue culture supernatant [5]: 0
- ELISA estimate of IFN-α protein level in tissue culture supernatant [6]: 0
- ELISA estimate of IFN-α protein level in tissue culture supernatant [7]: 296
- ELISA estimate of IFN-α protein level in tissue culture supernatant [8]: 0
- ELISA estimate of IFN-α protein level in tissue culture supernatant [9]: 0
- specific ELISA signal compared to human IFN-α2 [10]: 10%
- specific ELISA signal compared to human IFN-α2 [11]: 10%
Substance: Human IFN-α ELISA kit, PBL Biomedical Laboratories Product #41100-1 (kit antibodies) (antibody)
